# Measurements published in article PMC12669963, “PGAM5 cleavage and oligomerization equilibrates mitochondrial dynamics under stress by regulating DRP1 function” (Journal of Cell Science, 2025).
# B1: endogenous PGAM5 (natural protein, human (endogenous in HEK293 and U2OS), UniProt Q96HS1 1-289, looked up)
# chain: MAFRQALQLAACGLAGGSAAVLFSAVAVGKPRAGGDAEPRPAEPPAWAGGARPGPGVWDPNWDRREPLSLINVRKRNVESGEEELASKLDHYKAKATRHIFLIRHSQYHVDGSLEKDRTLTPLGREQAELTGLRLASLGLKFNKIVHSSMTRAIETTDIISRHLPGVCKVSTDLLREGAPIEPDPPVSHWKPEAVQYYEDGARIEAAFRNYIHRADARQEEDSYEIFICHANVIRYIVCRALQFPPEGWLRLSLNNGSITHLVIRPNGRVALRTLGDTGFMPPDKITRS
# notes: endogenous PGAM5; source: endogenous, HEK293 and U2OS lysate
# Biological target: the molecule itself
# Experiment: native gel or EMSA; native-PAGE of U2OS lysates (50 mM Tris-HCl pH 7.4, 150 mM NaCl, 0.5% Triton X-100), steady state or CCCP, immunoblot for endogenous PGAM5
protein,measurement,value
B1,stoichiometry N,2
